Values of other authors as cited in publication PMC4072394.

Tests used:
Asp299 = assay: UV-vis; conditions: detergent-solubilised, unphotolysed (ground) state with protonated Schiff base
Glu169 = assay: UV-vis; conditions: detergent-solubilised, unphotolysed (ground) state with protonated Schiff base

**Q.** What does the source list for “Channelrhodopsin-1 (CaChR1) (Chlamydomonas augustae)”?
**A.** pKa (Asp299): near 5; pKa (Glu169): near 9
